Data on 1 molecule can be found in paper PMC9700037 (2022).

What is called Kd is the free concentration of one partner at which half of the binding sites on the other are occupied at equilibrium, for simple one-to-one binding.

This test addresses T1, biotin-MBP-NLRP1 M1184V (Avi-MBP-tev-NLRP1 M1184V) (human, UniProt Q9C000 1-1473, M1184V, biotin (on the Avi tag, BirA co-expressed)).
T1 sequence: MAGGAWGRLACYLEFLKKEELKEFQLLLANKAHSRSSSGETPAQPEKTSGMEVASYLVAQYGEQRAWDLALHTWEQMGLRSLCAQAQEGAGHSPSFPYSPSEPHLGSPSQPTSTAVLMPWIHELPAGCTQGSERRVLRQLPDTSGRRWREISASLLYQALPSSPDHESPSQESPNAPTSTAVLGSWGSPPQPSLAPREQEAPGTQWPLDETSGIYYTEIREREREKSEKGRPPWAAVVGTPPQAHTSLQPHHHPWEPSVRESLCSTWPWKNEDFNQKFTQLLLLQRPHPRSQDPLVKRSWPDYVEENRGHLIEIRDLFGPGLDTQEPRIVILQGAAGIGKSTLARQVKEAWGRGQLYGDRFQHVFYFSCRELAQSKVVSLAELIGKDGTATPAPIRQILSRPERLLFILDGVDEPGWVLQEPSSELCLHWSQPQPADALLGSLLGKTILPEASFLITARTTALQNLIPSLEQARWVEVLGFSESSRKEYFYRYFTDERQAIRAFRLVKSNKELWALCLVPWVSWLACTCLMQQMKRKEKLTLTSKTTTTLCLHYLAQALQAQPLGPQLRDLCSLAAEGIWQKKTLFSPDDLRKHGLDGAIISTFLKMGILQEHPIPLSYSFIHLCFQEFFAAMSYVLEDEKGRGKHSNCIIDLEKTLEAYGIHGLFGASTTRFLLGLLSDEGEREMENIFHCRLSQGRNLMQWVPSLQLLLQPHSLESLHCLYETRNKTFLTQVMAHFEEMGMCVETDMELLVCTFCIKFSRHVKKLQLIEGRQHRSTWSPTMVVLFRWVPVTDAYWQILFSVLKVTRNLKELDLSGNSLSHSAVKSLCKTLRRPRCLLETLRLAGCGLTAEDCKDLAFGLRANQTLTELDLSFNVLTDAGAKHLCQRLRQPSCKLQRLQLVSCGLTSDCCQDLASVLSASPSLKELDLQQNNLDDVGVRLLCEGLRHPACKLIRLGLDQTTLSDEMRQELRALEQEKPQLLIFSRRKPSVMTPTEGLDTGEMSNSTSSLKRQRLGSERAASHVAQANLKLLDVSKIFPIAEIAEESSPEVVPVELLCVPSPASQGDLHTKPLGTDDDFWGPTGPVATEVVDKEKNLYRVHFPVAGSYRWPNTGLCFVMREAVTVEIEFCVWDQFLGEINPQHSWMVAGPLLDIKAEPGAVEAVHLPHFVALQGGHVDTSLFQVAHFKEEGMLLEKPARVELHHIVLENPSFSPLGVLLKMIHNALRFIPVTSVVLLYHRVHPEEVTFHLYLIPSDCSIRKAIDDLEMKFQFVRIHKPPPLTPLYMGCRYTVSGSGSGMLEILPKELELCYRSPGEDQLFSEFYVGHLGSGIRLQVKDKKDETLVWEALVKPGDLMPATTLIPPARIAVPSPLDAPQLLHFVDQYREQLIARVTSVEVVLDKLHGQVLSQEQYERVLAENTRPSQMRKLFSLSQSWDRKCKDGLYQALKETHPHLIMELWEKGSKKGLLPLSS
The experiment in a line: SPR; NLRP1 void (high MW) fraction. (In general: Surface plasmon resonance follows binding to a sensor surface in real time, without labels.)

B1: His6-tev-DPP9 (enzyme)
chain: MATTGTPTADRGDAAATDDPAARFQVQKHSWDGLRSIIHGSRKYSGLIVNKAPHDFQFVQKTDESGPHSHRLYYLGMPYGSRENSLLYSEIPKKVRKEALLLLSWKQMLDHFQATPHHGVYSREEELLRERKRLGVFGITSYDFHSESGLFLFQASNSLFHCRDGGKNGFMVSPMKPLEIKTQCSGPRMDPKICPADPAFFSFINNSDLWVANIETGEERRLTFCHQGLSNVLDDPKSAGVATFVIQEEFDRFTGYWWCPTASWEGSEGLKTLRILYEEVDESEVEVIHVPSPALEERKTDSYRYPRTGSKNPKIALKLAEFQTDSQGKIVSTQEKELVQPFSSLFPKVEYIARAGWTRDGKYAWAMFLDRPQQWLQLVLLPPALFIPSTENEEQRLASARAVPRNVQPYVVYEEVTNVWINVHDIFYPFPQSEGEDELCFLRANECKTGFCHLYKVTAVLKSQGYDWSEPFSPGEDEFKCPIKEEIALTSGEWEVLARHGSKIWVNEETKLVYFQGTKDTPLEHHLYVVSYEAAGEIVRLTTPGFSHSCSMSQNFDMFVSHYSSVSTPPCVHVYKLSGPDDDPLHKQPRFWASMMEAASCPPDYVPPEIFHFHTRSDVRLYGMIYKPHALQPGKKHPTVLFVYGGPQVQLVNNSFKGIKYLRLNTLASLGYAVVVIDGRGSCQRGLRFEGALKNQMGQVEIEDQVEGLQFVAEKYGFIDLSRVAIHGWSYGGFLSLMGLIHKPQVFKVAIAGAPVTVWMAYDTGYTERYMDVPENNQHGYEAGSVALHVEKLPNEPNRLLILHGFLDENVHFFHTNFLVSQLIRAGKPYQLQIYPNERHSIRCPESGEHYEVTLLHFLQEYL
B1 registered a Kd of 113 nM.
